Test results reported in US20220073641A1, “FUSION PROTEIN OF ANTIBODY THAT RECOGNIZES CANCER CELLS AND MUTANT STREPTAVIDIN” (The University of Tokyo, priority 2018, published 2022).

How the values were obtained:
MKN45 cells [1] = assay: Cytotoxicity test using CEA-V2122 and photoactivatable compound-labeled modified biotins with 690 nm light; conditions: complex with CEA-V2122 (molar ratio 1:2), 0.039-10 μg/mL, 690±10 nm 100 J/cm^2, 48 hours, Cell Counting Kit-8; FIG. 8
Experimental: Specifically, MKN45 cells were seeded on a 96-well plate for cell culture, so that the cell count became 5×10^3 cells/well and the amount of the culture solution became 50 μL/well, and thereafter, the cells were cultured overnight. […] Regarding serial dilutions, 20 μg/mL was set to be an initial concentration, from 4-fold serial dilutions (5.0 μg/mL, 1.25 μg/mL, 0.312 μg/mL, and 0.078 μg/mL), 5 complex serial dilution solutions were prepared. Besides, a medium alone that contained no complex was used as a zero control.
Such complex serial dilution solutions were each added in an amount of 50 μL/well to the cells cultured overnight, so that the final concentrations became 10 μg/mL, 2.5 μg/mL, 0.625 μg/mL, 0.156 μg/mL, and 0.039 μg/mL One hour and two hours after addition of the complex, the cells were irradiated with a light, using LED emitting a light having a wavelength of 690±10 nm, so that the irradiation energy became 100 J/cm^2. […] Each condition was set to be n=3. The dosage and administration were determined in accordance with the instruction manuals included with the kit, and after addition of the reagent, the mixture was incubated for 1.5 hours at 37° C., in a CO2 incubator. Thereafter, the absorbance at 450 nm was measured, and the mean value was then calculated, followed by background collection. […]

MKN45 cells [2] = assay: In vivo cytotoxicity test in MKN45 xenograft mouse models with 690 nm light; design: species or system nude mice; conditions: 100 μg complex of CEA-V2122 and Compound 1 via caudal vein; 690 nm 230 J/cm^2 at 6 and 24 hours; pathology on 7th day; FIG. 11, 12
From the text: MKN45 cells were subcutaneously transplanted into nude mice to produce xenograft mouse models. That is, 4-week-old female nude mice were purchased, and the mice were then acclimated for 1 week. Thereafter, the MKN45 cells were transplanted in a cell count of 2×10^5 cells per mouse into the subcutis thereof. […] Using an LED light source emitting a light having a wavelength of 690 nm (USHIO OPTO SEMICONDUCTORS, INC., LD690D-66-60-550.), T-Cube LED Driver (THORLABS, NC0713145), and T-CUBE 15V POWER SUPPLY (THORLABS, TPS001), 6 hours after the administration, the mice were irradiated with the light having a wavelength of 690 nm, so that the irradiation energy became 230 J/cm^2. Twenty-four hours after administration of the complex, the mice were irradiated again with the light having a wavelength of 690 nm, so that the irradiation energy became 230 J/cm^2. Individual mice were euthanized on the 7th day after administration of the complex and were then excised, and the tumor portions were subjected to pathological analysis. The specific method is as follows. That is, the subcutaneous tumor of each mouse and the peripheral tissues thereof were excised as a mass, and the mass was then immersed in a 4% paraformaldehyde solution (Wako Pure Chemical Industries, Ltd., 163-20145) at mom temperature overnight, so that the tissues were fixed. […]

[3] = target: T1, Recombinant Human CEACAM-5/CD66e Protein, CF (R & D SYSTEMS) (human, UniProt P06731 35-685); assay: SPR (Biacore T200), CEACAM5 immobilized on CM5, CEA-V2122 as analyte, single-cycle kinetics, bivalent analysis fit
T1 construct: Purchased protein, amine-coupled to a CM5 chip; also called antigen CEACAM5
T1 sequence (looked up): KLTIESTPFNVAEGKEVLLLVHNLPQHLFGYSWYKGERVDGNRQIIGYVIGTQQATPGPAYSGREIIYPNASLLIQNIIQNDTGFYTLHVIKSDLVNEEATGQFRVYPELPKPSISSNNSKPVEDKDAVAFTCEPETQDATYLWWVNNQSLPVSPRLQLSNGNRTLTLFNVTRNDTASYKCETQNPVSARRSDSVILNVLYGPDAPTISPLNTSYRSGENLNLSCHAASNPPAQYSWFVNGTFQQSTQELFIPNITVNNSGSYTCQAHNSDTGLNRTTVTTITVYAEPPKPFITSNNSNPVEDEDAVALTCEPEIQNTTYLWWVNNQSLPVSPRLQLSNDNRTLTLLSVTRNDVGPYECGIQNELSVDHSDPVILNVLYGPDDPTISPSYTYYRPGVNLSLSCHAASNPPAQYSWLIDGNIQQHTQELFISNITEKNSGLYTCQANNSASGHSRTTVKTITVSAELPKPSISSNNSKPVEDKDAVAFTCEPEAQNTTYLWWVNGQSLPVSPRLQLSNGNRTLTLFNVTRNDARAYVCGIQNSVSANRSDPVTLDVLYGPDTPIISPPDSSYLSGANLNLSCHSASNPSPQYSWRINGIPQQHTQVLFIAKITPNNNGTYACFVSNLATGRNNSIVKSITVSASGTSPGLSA

CEACAM5 [4] = target: T2, CEACAM5 (Homo sapiens, UniProt P06731); assay: SPR (Biacore T200) affinity of CEA-V2122 for immobilized antigen CEACAM5; type: binding; design: purchased R & D SYSTEMS
T2 sequence (P06731 35-676): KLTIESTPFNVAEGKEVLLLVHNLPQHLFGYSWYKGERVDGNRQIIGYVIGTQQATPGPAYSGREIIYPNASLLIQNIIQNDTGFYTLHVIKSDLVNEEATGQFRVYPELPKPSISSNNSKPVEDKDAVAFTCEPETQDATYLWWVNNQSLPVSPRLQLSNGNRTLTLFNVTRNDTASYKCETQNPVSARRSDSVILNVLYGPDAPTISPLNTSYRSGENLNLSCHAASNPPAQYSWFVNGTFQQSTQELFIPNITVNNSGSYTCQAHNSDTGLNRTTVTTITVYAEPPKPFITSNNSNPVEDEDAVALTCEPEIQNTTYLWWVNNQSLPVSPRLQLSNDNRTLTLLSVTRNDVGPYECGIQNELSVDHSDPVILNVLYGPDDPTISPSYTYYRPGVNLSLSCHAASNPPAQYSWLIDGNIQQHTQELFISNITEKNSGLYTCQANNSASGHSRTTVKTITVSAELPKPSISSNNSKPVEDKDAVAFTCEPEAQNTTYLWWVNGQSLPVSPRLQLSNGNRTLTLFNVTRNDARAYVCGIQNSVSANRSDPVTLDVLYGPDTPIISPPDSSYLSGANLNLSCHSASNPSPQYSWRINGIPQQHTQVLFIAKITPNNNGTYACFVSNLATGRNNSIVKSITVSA

[5] = SPR (Biacore T200) interaction between immobilized CEA-V2122 and a modified biotin; type: binding
Experimental: Furthermore, the interaction between CEA-V2122 and a modified biotin was also analyzed using Biacore T200. The modified biotin was specifically the title compound 14 described in Example 1 of International Publication WO2018/07239. In addition, the analysis method was specifically as follows. That is, an amine-coupling kit was used, a target value was set to be 5000 RU, and the purified CEA-V2122 was immobilized on Sensor Chip CM5.

CEACAM5 [6] = target: T2, CEACAM5; assay: Cell staining of CEACAM5-expressing cell line using FITC-labeled CEA-V2122; type: cell-based
Experimental: In order to stain a CEACAM5 expression-positive cancer cell line, FTC labeling was carried out on the cell line, using 100 μg of a purified CEA-V2122 protein. Specifically, labeling was carried out using Fluorescein Labeling Kit—NH2 (DOJINDO LABORATORIES) in accordance with the dosage and administration described in the operating manual included with the kit, and the obtained product was defined to be CEA-V2122-FITC. Specific staining of the CEACAM5 expression-positive cancer cell line is as follows. That is, CEACAM5-positive human stomach cancer-derived MKN-45 cells and CEACAM5-negative human colon cancer-derived DLD1 cells were each seeded on a CELLSTAR, μClear, 96-well plate (Greiner) to a cell density of 2.0×10^4 cells/well, and thereafter, the cells were cultured overnight. Subsequently, a culture solution containing 20 nM CEA-V2122-FITC and 1 μM Hoechist was added to the 96-well plate to a concentration of 100 μL/well, and the obtained mixture was then reacted at 4° C. for 30 minutes. Thereafter, each image was taken using In Cell Analyzer 6000 (GE Healthcare Life Sciences).

[7] = single-cycle kinetics, bivalent analysis mode, CEACAM5 immobilized, CEA-V2122 analyte
[8] = single-cycle kinetics, bivalent analysis mode, CEA-V2122 immobilized, modified biotin analyte

For `C[Si](C)(CCC[N+](CCCS(=O)(=O)[O-])(CCCS(=O)(=O)O)CCCS(=O)(=O)O)O[Si]1(O[Si](C)(C)CCC[N+](CCCS(=O)(=O)[O-])(CCCS(=O)(=O)O)CCCS(=O)(=O)O)N2/C3=N\C4=NC(=N\c5c6c(OCCCOC(=O)NCCCCCC(=O)NCCOCCOCCN(CC(=O)NCCCCNC(=O)CCCC[C@@H]7SC[C@@H]8NC(=N)N[C@@H]87)CC(=O)NCCCCNC(=O)CCCC[C@@H]7SC[C@@H]8NC(=N)N[C@@H]87)cccc6c(n51)/N=C1\N=C(NC2c2ccccc23)c2ccccc21)/c1ccccc14` (stereo partly drawn) [Compound 1], the cytotoxicity (MKN45 cells [1]) was “exhibits cytotoxicity in a concentration-dependent manner” and the tumor necrosis (MKN45 cells [2]) was “necrosis can be induced to the tumor of the xenograft mouse model”.

B1: CEA-V2122 (scFv)
chain: QVKLEQSGAEVVKPGASVKLSCKASGFNIKDSYMHWLRQGPGQRLEWIGWIDPENGDTEYAPKFQGKATFTTDTSANTAYLGLSSLRPEDTAVYYCNEGTPTGPYYFDYWGQGTLVTVSSGGGGSGGGGSGGGGSENVLTQSPSSMSVSVGDRVNIACSASSSVPYMHWLQQKPGKSPKLLIYLTSNLASGVPSRFSGSGSGTDYSLTISSVQPEDAATYYCQQRSSYPLTFGGGTKLEIKGGGGSGGGGAEAGITGTWSDQLGDTFIVTAGADGALTGTYENAVGGAESRYVLTGRYDSAPATDGSGTALGWTVAWKNNSKNAHSATTWSGQYVGGADAKINTQWLLTSGTTNANAWKSTLVGHDTFTKVKPSAASHHHHHH
notes: also called CEA-Cupid; scFv-V2122
Molecule B1 has a Kd [3] of 1.08 pM.

B2: CEA-V2122: scFv-type anti-CEACAM5 antibody bound with mutant streptavidin V2122 via linker GGGGSGGGG; SEQ ID NO: 3 (protein)
chain: B1 chain
For B2, the “KD=kd1/ka1” value (CEACAM5 [4]; bivalent analysis mode) was 1.078E−12, the “binding to CEACAM5” value (CEACAM5 [4]; from the KD value in the sensorgram, FIG. 3) was “strongly binds to CEACAM5” and the ka1 (CEACAM5 [4]; [7]) was 3.208E+5. The kd1 (CEACAM5 [4]; [7]) was 3.461E−7, the “binding to a modified biotin” value ([5]; from the KD value in the sensorgram, FIG. 4) was “strongly binds to a modified biotin” and the ka1 [5, 8] was 3.792E+4. It also gave a kd1 [5, 8] of 4.424E−6.

B3: CEA-V2122-FITC: purified CEA-V2122 protein labeled with Fluorescein Labeling Kit—NH2 (protein)
chain: B1 chain
For B3, the “recognition of CEACAM5 on cells” value (CEACAM5 [6]; 20 nM, 4° C., 30 minutes, CEACAM5-positive MKN-45 vs CEACAM5-negative DLD1 cells, FIG. 5) was “specifically recognizes CEACAM5 on the surface of the cell membrane” and the “localisation of CEACAM5 after binding” value (CEACAM5 [6]; MKN45 cells, time series, FIG. 6) was “the CEACAM5 stays on the surface of the cell membrane”.
